Reference: the supplement of paper PMC11316812
± gives the standard deviation of the averaged measurements.

Legend:
[1] = test system: MCF7; experiment: percentage of EdU-negative (G0-arrested) nuclei per well, 72 h; higher = more G0 arrest; details: reference: sequence is the full UniProt precursor, the tested protein was the secreted form or ectodomain
[2] = test system: hTERT-HMEC; experiment: as above; details: reference: sequence is the full UniProt precursor, the tested protein was the secreted form or ectodomain
[3] = protein concentration 0.0305714 µM
[4] = protein concentration 0.305714 µM
[5] = protein concentration 0.0225 µM
[6] = protein concentration 0.03125 µM
[7] = protein concentration 0.3125 µM
[8] = protein concentration 0.0283425 µM
[9] = protein concentration 0.283425 µM
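Also: secreted proteins added to cultured cells, EdU pulse at the end, nuclei found by Hoechst imaging, EdU status from nuclear versus surrounding ring intensity ratio, PBS as neutral control.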

MSDLGAVISLLLWGRQLFALYSGNDVTDISDDRFPKPPEIANGYVEHLFRYQCKNYYRLRTEGDGVYTLNDKKQWINKAVGDKLPECEAVCGKPKNPANPVQRILGGHLDAKGSFPWQAKMVSHHNLTTGATLINEQWLLTTAKNLFLNHSENATAKDIAPTLTLYVGKKQLVEIEKVVLHPNYHQVDIGLIKLKQKVLVNERVMPICLPSKNYAEVGRVGYVSGWGQSDNFKLTDHLKYVMLPVADQYDCITHYEGSTCPKWKAPKSPVGVQPILNEHTFCVGMSKYQEDTCYGDAGSAFAVHDLEEDTWYAAGILSFDKSCAVAEYGVYVKVTSIQHWVQKTIAEN
percentage of EdU-negative ([1]; protein concentration 0.029 µM): 26.82 ± 0.23%
percentage of EdU-negative ([1]; protein concentration 0.29 µM): 26.1 ± 1.1%
percentage of EdU-negative ([2]; protein concentration 0.029 µM): 4.84 ± 0.049%
percentage of EdU-negative ([2]; protein concentration 0.29 µM): 4.84 ± 0.17%

MSDSKEPRLQQLGLLEEEQLRGLGFRQTRGYKSLAGCLGHGPLVLQLLSFTLLAGLLVQVSKVPSSISQEQSRQDAIYQNLTQLKAAVGELSEKSKLQEIYQELTQLKAAVGELPEKSKLQEIYQELTRLKAAVGELPEKSKLQEIYQELTWLKAAVGELPEKSKMQEIYQELTRLKAAVGELPEKSKQQEIYQELTRLKAAVGELPEKSKQQEIYQELTRLKAAVGELPEKSKQQEIYQELTQLKAAVERLCHPCPWEWTFFQGNCYFMSNSQRNWHDSITACKEVGAQLVVIKSAEEQNFLQLQSSRSNRFTWMGLSDLNQEGTWQWVDGSPLLPSFKQYWNRGEPNNVGEEDCAEFSGNGWNDDKCNLAKFWICKKSAASCSRDEEQFLSPAPATPNPPPA [Q9NNX6]
percentage of EdU-negative [1, 3]: 26.2 ± 1%
percentage of EdU-negative [1, 4]: 26.5 ± 0.49%
percentage of EdU-negative [2, 3]: 4.977 ± 0.027%
percentage of EdU-negative [2, 4]: 17 ± 4.1%

MSDSKEPRVQQLGLLEEDPTTSGIRLFPRDFQFQQIHGHKSSTGCLGHGALVLQLLSFMLLAGVLVAILVQVSKVPSSLSQEQSEQDAIYQNLTQLKAAVGELSEKSKLQEIYQELTQLKAAVGELPEKSKLQEIYQELTRLKAAVGELPEKSKLQEIYQELTRLKAAVGELPEKSKLQEIYQELTRLKAAVGELPEKSKLQEIYQELTELKAAVGELPEKSKLQEIYQELTQLKAAVGELPDQSKQQQIYQELTDLKTAFERLCRHCPKDWTFFQGNCYFMSNSQRNWHDSVTACQEVRAQLVVIKTAEEQNFLQLQTSRSNRFSWMGLSDLNQEGTWQWVDGSPLSPSFQRYWNSGEPNNSGNEDCAEFSGSGWNDNRCDVDNYWICKKPAACFRDE [Q9H2X3]
percentage of EdU-negative [1, 5]: 27 ± 3.5%
percentage of EdU-negative ([1]; protein concentration 0.225 µM): 23.8 ± 2.6%
percentage of EdU-negative [2, 5]: 5.68 ± 0.32%
percentage of EdU-negative ([2]; protein concentration 0.225 µM): 6.17 ± 0.82%

MSEEVTYADLQFQNSSEMEKIPEIGKFGEKAPPAPSHVWRPAALFLTLLCLLLLIGLGVLASMFHVTLKIEMKKMNKLQNISEELQRNISLQLMSNMNISNKIRNLSTTLQTIATKLCRELYSKEQEHKCKPCPRRWIWHKDSCYFLSDDVQTWQESKMACAAQNASLLKINNKNALEFIKSQSRSYDYWLGLSPEEDSTRGMRVDNIINSSAWVIRNAPDLNNMYCGYINRLYVQYYHCTYKKRMICEKMANPVQLGSTYFREA [Q5QGZ9]
percentage of EdU-negative [1, 5]: 25.2 ± 1.6%
percentage of EdU-negative ([1]; protein concentration 0.225 µM): 28.95 ± 0.13%
percentage of EdU-negative [2, 5]: 4.07 ± 0.067%
percentage of EdU-negative ([2]; protein concentration 0.225 µM): 4.99 ± 0.84%

MSERKEGRGKGKGKKKERGSGKKPESAAGSQSPALPPRLKEMKSQESAAGSKLVLRCETSSEYSSLRFKWFKNGNELNRKNKPQNIKIQKKPGKSELRINKASLADSGEYMCKVISKLGNDSASANITIVESNEIITGMPASTEGAYVSSESPIRISVSTEGANTSSSTSTSTTGTSHLVKCAEKEKTFCVNGGECFMVKDLSNPSRYLCKCQPGFTGARCTENVPMKVQNQEKAEELYQKRVLTITGICIALLVVGIMCVVAYCKTKKQRKKLHDRLRQSLRSERNNMMNIANGPHHPNPPPENVQLVNQYVSKNVISSEHIVEREAETSFSTSHYTSTAHHSTTVTQTPSHSWSNGHTESILSESHSVIVMSSVENSRHSSPTGGPRGRLNGTGGPRECNSFLRHARETPDSYRDSPHSERYVSAMTTPARMSPVDFHTPSSPKSPPSEMSPPVSSMTVSMPSMAVSPFMEEERPLLLVTPPRLREKKFDHHPQQFSSFHHNPAHDSNSLPASPLRIVEDEEYETTQEYEPAQEPVKKLANSRRAKRTKPNGHIANRLEVDSNTSSQSSNSESETEDERVGEDTPFLGIQNPLAASLEATPAFRLADSRTNPAGRFSTQEEIQARLSSVIANQDPIAV
percentage of EdU-negative [1, 6]: 23.8 ± 3.8%
percentage of EdU-negative [1, 7]: 24.8 ± 0.83%
percentage of EdU-negative [2, 6]: 4.23 ± 0.16%
percentage of EdU-negative [2, 7]: 4.694 ± 0.041%

MSEVPVARVWLVLLLLTVQVGVTAGAPWQCAPCSAEKLALCPPVSASCSEVTRSAGCGCCPMCALPLGAACGVATARCARGLSCRALPGEQQPLHALTRGQGACVQESDASAPHAAEAGSPESPESTEITEEELLDNFHLMAPSEEDHSILWDAISTYDGSKALHVTNIKKWKEPCRIELYRVVESLAKAQETSGEEISKFYLPNCNKNGFYHSRQCETSMDGEAGLCWCVYPWNGKRIPGSPEIRGDPNCQIYFNVQN
percentage of EdU-negative [1, 8]: 24.4 ± 0.48%
percentage of EdU-negative [1, 9]: 29.6 ± 4%
percentage of EdU-negative [2, 8]: 5.41 ± 0.56%
percentage of EdU-negative [2, 9]: 9.21 ± 1.1%
